Data reported in US20200283521A1 (GRANULAR THERAPEUTICS, published 2020).
Positions count from the first letter of the chain named.

B1: MH5.3 (antibody, IgG1, V domains shown)
VH: QVQLVQSGAEVKKPGASVKVSCKASGYTFTDHYMNWVRQAPGQGLEWMGRIYPGTGNTYYAQKFQGRVTMTRDTSTSTVYMELSSLRSEDTAVYYCARGVWYYDYWGQGTLVTVSS
VL: DIQMTQSPSSLSASVGDRVTITCRASQGIRTNLAWFQQKPGKAPKSLIYAASSLQSGVPSRFSGSGSGTDFTLTISSLQPEDFATYYCQQYANYPRTFGGGTKVEIK
notes: IgG1
B2: MH5.8 (antibody, IgG1, V domains shown)
VH: B1 VH with T55A, Y103F, Y105S
VL: B1 VL
notes: IgG1
B3: MH5.9 (antibody, IgG1, V domains shown)
VH: B1 VH with T55A, Y103F, Y105T
VL: B1 VL
notes: IgG1
B4: MH5.14 (antibody, IgG1, V domains shown)
VH: B1 VH with G54A, T55S, Y103F, Y105E
VL: B1 VL
notes: IgG1
B5: MH5.12 (antibody, IgG1, V domains shown)
VH: B1 VH with G54A, T55S, Y103F, Y105S
VL: B1 VL
notes: IgG1
B6: MH5.11 (antibody, IgG1, V domains shown)
VH: B1 VH with G54A, T55S
VL: B1 VL
notes: IgG1
B7: MH5.17 (antibody, IgG1, V domains shown)
VH: B1 VH with H32F, Y103F, Y105E
VL: B1 VL
notes: IgG1
B8: MH5.19 (antibody, IgG1, V domains shown)
VH: B1 VH with H32F, T55A, Y103F, Y105S
VL: B1 VL
notes: IgG1
B9: MH5.26 (antibody, IgG1, V domains shown)
VH: B1 VH with D31N, H32Y, Y103F, Y105S
VL: B1 VL
notes: IgG1
B10: MH5.5 (antibody, IgG1, V domains shown)
VH: B1 VH with Y103F, Y105T
VL: B1 VL
notes: IgG1
B11: MH5.7 (antibody, IgG1, V domains shown)
VH: B1 VH with T55A
VL: B1 VL
notes: IgG1
B12: MH5.18 (antibody, IgG1, V domains shown)
VH: B1 VH with H32F, T55A
VL: B1 VL
notes: IgG1
B13: MH5.20 (antibody, IgG1, V domains shown)
VH: B1 VH with H32F, T55A, Y103F, Y105T
VL: B1 VL
notes: IgG1
B14: MH5.13 (antibody, IgG1, V domains shown)
VH: B1 VH with G54A, T55S, Y103F, Y105T
VL: B1 VL
notes: IgG1
B15: MH5.21 (antibody, IgG1, V domains shown)
VH: B1 VH with H32F, T55A, Y103F, Y105E
VL: B1 VL
notes: IgG1
B16: MH5.25 (antibody, IgG1, V domains shown)
VH: B1 VH with H32F, G54A, T55S, Y103F, Y105E
VL: B1 VL
notes: IgG1
B17: MH5.16 (antibody, IgG1, V domains shown)
VH: B1 VH with H32F, Y103F, Y105T
VL: B1 VL
notes: IgG1
B18: MH5.27 (antibody, IgG1, V domains shown)
VH: B1 VH with D31N, H32Y, Y103F, Y105T
VL: B1 VL
notes: IgG1

target: T1, human C-KIT-Fc (human, UniProt P10721 26-524); experiment: direct ELISA;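 also: Plate-coated C-KIT-Fc (1 µg/ml) probed with antibodies for 1 hr, bound IgG detected via anti-human kappa-HRP and TMB, absorbance measured at 450 nm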
T1 construct: also called biotinylated human C-KIT-Fc; not shown: Fc part not described

Row | binding result | Binder
1 | binds | B1
2 | binds | B2
3 | binds | B3
4 | binds | B4
5 | binds | B5
6 | binds | B6
7 | binds | B7
8 | binds | B8
9 | binds | B9
10 | binds | B10
11 | binds | B11
12 | binds | B12
13 | binds | B13
14 | binds | B14
15 | binds | B15
16 | binds | B16
17 | binds | B17
18 | binds | B18
